In patent US20060269997A1 (Genentech, published 2006):

B1: LK-VRB-1s* (ligand, human, UniProt P15692-4 27-135, looked up)
chain: APMAEGGGQNHHEVVKFEDVLRRSSCHPIETLVDIFQEYPDEIEYIFKPSCVPLMRCGGCCNDEGLECVPTEESNITMQIMRIKPHQGQHIGEMSFLQHNKCECRPKKD
B2: native VEGF (8-109) (ligand, human, UniProt P15692 214-315, looked up)
chain: GQNHHEVVKFMDVYQRSYCHPIETLVDIFQEYPDEIEYIFKPSCVPLMRCGGCCNDEGLECVPTEESNITMQIMRIKPHQGQHIGEMSFLQHNKCECRPKKD
modifications: biotinylated where used as tracer

Key:
KDR (1-3) monomer [1] = target: T1, KDR (1-3) monomer (UniProt P35968 20-327, limits assumed, biotin-labeled in the ELISA of Example 8); experiment: competition ELISA vs biotinylated VEGF (8-109), soluble KDR (1-3) captured by MAKD5
T1 construct: domain: domains 1 to 3; Genentech reagent; also called domains 1 to 3 of KDR
Protocol: (§1) Receptor binding assays were performed in 96-well immunoplates (Maxisorp, Nunc-Immunoplate, Nalge Nunc International, Rochester, N.Y.). Each well was coated with 100 μl of a solution containing 8 μg/ml of a monoclonal antibody to KDR known as MAKD5 (Genentech, South San Francisco, Calif.) in 50 mM carbonate buffer at pH 9.6 and incubated at 4° C. overnight. The supernatant was discarded, the wells were washed three times in washing buffer (0.05% Tween 20 in PBS), and the plate was blocked (150 μl per well) with block buffer (0.5% BSA, 0.01% thimerosal in PBS) at room temperature for one hour. The supernatant was discarded, and the wells were washed.
(§2) Aliquots of this mixture (100 μl) were added to the precoated microtiter wells and the plate was incubated for 1 hour at room temperature. […] The wells were then incubated with 3,3′, 5,5′-tetramethyl benzidine (0.2 gram/liter; Kirkegaard & Perry Laboratories, Gaithersburg, Md.) for about 10 minutes at room temperature. Absorbance was read at 450 nm on a Vmax plate reader (Molecular Devices, Menlo Park, Calif.).
(§3) Titration curves were fit with a four-parameter nonlinear regression curve-fitting program (KaleidaGraph, Synergy Software, Reading, Pa.).

[2] = target: KDR on human umbilical vein endothelial cells (HUVEC) (human, UniProt P35968 20-1356); experiment: cell-based or functional assay
[3] = target: T2, Flt-IgG (a chimeric Flt-human Fc molecule) (UniProt P17948 27-758, limits assumed); experiment: competition ELISA vs biotinylated native VEGF, Flt-IgG captured by anti-Fc
T2 construct: Only described as a chimeric Flt-human Fc molecule; not shown: human Fc
Protocol: Receptor binding assays were performed in 96-well immunoplates (Maxisorp, Nunc-Immunoplate, Nalge Nunc International, Rochester, N.Y.). Each well was coated with 100 μl of a solution containing 2 μg/ml of rabbit F(ab′)2 to human IgG Fc (Jackson ImmunoResearch, West Grove, Pa.) in 50 mM carbonate buffer at pH 9.6 and incubated at 4° C. overnight. The supernatant was then discarded, the wells were washed three times in washing buffer (0.05% Tween 20 in PBS), and the plate was blocked (150 μl per well) with block buffer (0.5% BSA, 0.01% thimerosal in PBS) at room temperature for one hour. The supernatant was discarded, and the wells were washed.
The wells were filled with 100 μl of a solution containing Flt-IgG (a chimeric Flt-human Fc molecule) at 50 ng/ml in assay buffer (0.5% BSA, 0.05% Tween 20 in PBS). The wells were incubated at room temperature for 1 hour and then washed three times in wash buffer (0.05% Tween 20 in PBS).
as §2, with “the” for “this”, “2 hours” for “1 hour”, “g/liter,” for “gram/liter;”

[4] = target: FLT-1 receptor (soluble RIA of Examples 6 and 8) (UniProt P17948 27-758, limits assumed); experiment: radio-immuno receptor-binding assay (RIA)
[5] = target: KDR receptor (soluble RIA of Examples 6 and 8) (UniProt P35968 20-764, limits assumed); experiment: radio-immuno receptor-binding assay (RIA)
[6] = target: gD-KDR receptor on CHO cells (UniProt P35968 20-1356); experiment: cell-based or functional assay
KDR (1-3) monomer [7] = target: T1, KDR (1-3) monomer; experiment: competition ELISA: inhibits binding of biotinylated native VEGF (8-109) to KDR (1-3) captured by antibody MAKD5 (Example 2)
Protocol: as §1, §2, §3

T1 sequence (P35968 20-327 limits assumed): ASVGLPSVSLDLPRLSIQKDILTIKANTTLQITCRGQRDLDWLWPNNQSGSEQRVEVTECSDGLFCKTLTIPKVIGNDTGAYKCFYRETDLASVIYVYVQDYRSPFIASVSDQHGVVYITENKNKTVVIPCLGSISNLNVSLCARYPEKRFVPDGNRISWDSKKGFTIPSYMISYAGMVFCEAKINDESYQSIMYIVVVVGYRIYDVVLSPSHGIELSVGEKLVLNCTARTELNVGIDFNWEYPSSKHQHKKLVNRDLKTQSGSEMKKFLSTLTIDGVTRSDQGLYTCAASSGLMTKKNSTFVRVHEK
T2 sequence (P17948 27-758 limits assumed, change not shown): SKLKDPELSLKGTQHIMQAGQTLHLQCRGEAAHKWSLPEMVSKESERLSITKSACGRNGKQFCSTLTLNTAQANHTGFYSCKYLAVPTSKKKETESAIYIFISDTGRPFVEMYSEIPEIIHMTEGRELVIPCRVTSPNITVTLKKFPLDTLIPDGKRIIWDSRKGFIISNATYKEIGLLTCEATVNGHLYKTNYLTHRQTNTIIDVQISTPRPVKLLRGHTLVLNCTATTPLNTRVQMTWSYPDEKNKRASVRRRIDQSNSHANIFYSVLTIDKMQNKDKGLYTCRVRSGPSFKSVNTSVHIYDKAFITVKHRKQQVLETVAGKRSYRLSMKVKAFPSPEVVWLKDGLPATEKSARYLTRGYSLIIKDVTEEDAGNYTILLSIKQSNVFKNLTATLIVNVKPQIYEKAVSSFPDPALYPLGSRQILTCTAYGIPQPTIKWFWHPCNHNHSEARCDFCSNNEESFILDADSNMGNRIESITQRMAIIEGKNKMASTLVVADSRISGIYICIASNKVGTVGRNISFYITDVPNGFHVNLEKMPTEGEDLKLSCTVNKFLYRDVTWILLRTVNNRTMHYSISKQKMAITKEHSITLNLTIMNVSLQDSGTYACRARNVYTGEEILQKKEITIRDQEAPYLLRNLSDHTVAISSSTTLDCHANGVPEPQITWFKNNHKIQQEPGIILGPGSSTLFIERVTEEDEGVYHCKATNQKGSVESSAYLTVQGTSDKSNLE
Sequence of KDR on human umbilical vein endothelial cells (HUVEC) (P35968 20-1356): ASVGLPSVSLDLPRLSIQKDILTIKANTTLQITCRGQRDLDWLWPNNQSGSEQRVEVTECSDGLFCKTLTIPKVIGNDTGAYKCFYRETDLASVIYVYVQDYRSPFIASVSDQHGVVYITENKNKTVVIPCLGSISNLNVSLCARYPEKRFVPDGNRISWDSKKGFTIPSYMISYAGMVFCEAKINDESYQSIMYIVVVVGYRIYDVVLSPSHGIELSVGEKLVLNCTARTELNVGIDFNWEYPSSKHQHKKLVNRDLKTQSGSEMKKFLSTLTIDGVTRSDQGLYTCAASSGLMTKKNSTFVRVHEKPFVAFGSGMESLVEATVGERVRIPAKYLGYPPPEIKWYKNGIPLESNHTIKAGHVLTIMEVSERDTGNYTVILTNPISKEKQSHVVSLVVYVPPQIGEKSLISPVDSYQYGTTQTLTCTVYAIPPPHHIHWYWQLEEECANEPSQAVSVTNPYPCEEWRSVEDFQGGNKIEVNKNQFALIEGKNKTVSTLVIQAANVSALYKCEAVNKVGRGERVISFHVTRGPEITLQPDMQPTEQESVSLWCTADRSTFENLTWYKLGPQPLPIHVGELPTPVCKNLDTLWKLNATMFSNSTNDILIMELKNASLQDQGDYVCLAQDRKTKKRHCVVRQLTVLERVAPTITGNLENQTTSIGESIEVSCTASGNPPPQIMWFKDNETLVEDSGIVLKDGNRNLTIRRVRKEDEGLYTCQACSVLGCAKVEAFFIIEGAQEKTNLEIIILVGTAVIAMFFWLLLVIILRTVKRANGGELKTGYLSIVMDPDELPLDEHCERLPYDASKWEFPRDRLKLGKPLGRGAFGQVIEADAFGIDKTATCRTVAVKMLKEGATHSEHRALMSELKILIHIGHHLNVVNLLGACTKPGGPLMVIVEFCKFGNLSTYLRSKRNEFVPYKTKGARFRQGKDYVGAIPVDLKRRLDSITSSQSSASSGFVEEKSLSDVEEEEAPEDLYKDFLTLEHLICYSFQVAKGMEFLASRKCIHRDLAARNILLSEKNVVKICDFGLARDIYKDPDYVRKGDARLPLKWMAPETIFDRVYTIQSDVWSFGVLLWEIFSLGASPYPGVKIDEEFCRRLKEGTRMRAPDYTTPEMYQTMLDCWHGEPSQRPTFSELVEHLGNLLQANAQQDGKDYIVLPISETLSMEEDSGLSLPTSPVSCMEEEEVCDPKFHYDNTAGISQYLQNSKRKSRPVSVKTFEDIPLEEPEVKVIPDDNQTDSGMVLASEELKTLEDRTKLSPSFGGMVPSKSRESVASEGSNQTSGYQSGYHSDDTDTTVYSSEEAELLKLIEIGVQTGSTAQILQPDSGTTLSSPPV
Sequence of FLT-1 receptor (soluble RIA of Examples 6 and 8) (P17948 27-758 limits assumed): as the sequence (P17948 27-758 limits assumed, change not shown) above
Sequence of KDR receptor (soluble RIA of Examples 6 and 8) (P35968 20-764 limits assumed): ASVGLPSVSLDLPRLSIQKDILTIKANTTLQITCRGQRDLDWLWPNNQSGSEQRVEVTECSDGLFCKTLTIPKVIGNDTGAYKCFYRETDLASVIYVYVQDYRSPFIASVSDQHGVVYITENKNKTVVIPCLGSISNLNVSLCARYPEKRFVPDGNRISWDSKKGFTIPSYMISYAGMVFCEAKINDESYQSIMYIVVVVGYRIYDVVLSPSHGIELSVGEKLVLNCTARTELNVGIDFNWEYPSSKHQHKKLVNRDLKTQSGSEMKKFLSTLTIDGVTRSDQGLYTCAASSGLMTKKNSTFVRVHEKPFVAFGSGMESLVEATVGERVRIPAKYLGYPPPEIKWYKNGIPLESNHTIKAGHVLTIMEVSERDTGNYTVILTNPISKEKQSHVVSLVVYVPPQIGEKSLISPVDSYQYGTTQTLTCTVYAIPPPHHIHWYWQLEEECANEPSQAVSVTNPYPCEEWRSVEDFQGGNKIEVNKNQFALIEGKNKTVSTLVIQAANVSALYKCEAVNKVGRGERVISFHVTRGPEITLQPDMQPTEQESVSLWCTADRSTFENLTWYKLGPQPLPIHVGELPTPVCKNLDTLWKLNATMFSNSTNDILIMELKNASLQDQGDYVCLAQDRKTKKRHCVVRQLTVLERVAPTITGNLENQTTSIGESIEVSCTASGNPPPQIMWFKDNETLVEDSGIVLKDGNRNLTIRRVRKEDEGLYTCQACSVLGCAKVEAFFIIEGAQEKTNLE

Binder | IC50 (KDR (1-3) monomer [1]) | Relative Binding Affinity (ratio to native VEGF (8-109)) (KDR (1-3) monomer [1]) | Endothelial Cell Proliferation Activity (HUVEC), ratio to native VEGF (8-109) [2] | Endothelial Cell Proliferation Activity (HUVEC, 3H-thymidine), concentration [2] | IC50 [3] | Relative Binding Affinity (ratio to native VEGF (8-109)) [3] | Relative Binding Affinity (ratio to native VEGF 165) [4] | Relative Binding Affinity (ratio to native VEGF 165) [5] | Phosphorylation-Inducing Activity (KIRA), midpoint concentration [6] | Phosphorylation-Inducing Activity (KIRA), ratio to native VEGF (8-109) [6] | IC50 (read off the curve) (KDR (1-3) monomer [7])
B1 | 1 nM | 1 fold | 0.2 fold | 0.1 nM | 2700 nM | 6000 fold | 14000 fold | 20 fold | 1 nM | 0.5 fold | –
B2 | – | – | – | 0.5 nM | 0.42 nM | – | – | – | 2 nM | – | ~2 nM
